Assay results published in article PMC11758950.

Molecular target: T1, ELFN1-myc (mouse) (UniProt Q8C8T7)
T1 sequence: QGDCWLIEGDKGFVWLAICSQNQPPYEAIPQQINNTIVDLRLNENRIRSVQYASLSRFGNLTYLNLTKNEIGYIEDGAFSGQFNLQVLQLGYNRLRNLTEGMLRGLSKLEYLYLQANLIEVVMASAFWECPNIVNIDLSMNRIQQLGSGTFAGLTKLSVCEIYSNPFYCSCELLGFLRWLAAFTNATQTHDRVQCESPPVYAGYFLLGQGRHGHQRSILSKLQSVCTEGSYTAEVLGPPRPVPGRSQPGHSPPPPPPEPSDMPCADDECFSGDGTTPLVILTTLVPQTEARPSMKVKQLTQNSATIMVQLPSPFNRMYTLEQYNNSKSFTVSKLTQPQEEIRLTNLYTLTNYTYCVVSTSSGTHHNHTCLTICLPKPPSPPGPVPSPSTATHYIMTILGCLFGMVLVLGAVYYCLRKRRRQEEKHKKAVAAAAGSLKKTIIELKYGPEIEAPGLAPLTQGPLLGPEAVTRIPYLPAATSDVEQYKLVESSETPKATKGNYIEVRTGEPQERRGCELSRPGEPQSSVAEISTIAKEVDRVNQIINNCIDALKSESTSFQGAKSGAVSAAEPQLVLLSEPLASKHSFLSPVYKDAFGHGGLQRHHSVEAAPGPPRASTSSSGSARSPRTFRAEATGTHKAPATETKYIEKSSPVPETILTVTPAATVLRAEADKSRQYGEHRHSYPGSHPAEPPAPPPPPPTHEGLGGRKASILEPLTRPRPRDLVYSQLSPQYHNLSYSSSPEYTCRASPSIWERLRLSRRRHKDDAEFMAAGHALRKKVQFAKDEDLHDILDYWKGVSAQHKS

cell membrane enrichment of ELFN1Δ452-Venus (membrane against proximal cytosolic pixel intensity) with co-expression of ELFN1-myc (median 92.50% under control conditions): 129% | percentage of cells with membrane enrichment of ELFN1Δ452-Venus when co-expressed with ELFN1-myc (0.000 without ELFN1-myc); live-cell confocal microscopy, HEK293: 33.4%
B1: ELFN1Δ452-Venus (domain or fragment)
chain: QGDCWLIEGDKGFVWLAICSQNQPPYEAIPQQINNTIVDLRLNENRIRSVQYASLSRFGNLTYLNLTKNEIGYIEDGAFSGQFNLQVLQLGYNRLRNLTEGMLRGLSKLEYLYLQANLIEVVMASAFWECPNIVNIDLSMNRIQQLGSGTFAGLTKLSVCEIYSNPFYCSCELLGFLRWLAAFTNATQTHDRVQCESPPVYAGYFLLGQGRHGHQRSILSKLQSVCTEGSYTAEVLGPPRPVPGRSQPGHSPPPPPPEPSDMPCADDECFSGDGTTPLVILTTLVPQTEARPSMKVKQLTQNSATIMVQLPSPFNRMYTLEQYNNSKSFTVSKLTQPQEEIRLTNLYTLTNYTYCVVSTSSGTHHNHTCLTICLPKPPSPPGPVPSPSTATHYIMTILGCLFGMVLVLGAVYYCLRKRRRQEEKHKK
